One assay has as its target β-arrestin1 (UniProt P49407). The experiment in a line: GST pull-down from cell lysate. Conditions: reference: YFP-GCN2 wild type; sites T899.
The target of a further assay is β-arrestin2 (UniProt P32121). Kind of assay: GST pull-down from cell lysate. Conditions: reference: YFP-GCN2 wild type; sites T899.

In the case of “GCN2 1-1649 (from UniProt Q9P2K8) YFP-GCN2 T899A”, the “binding against the reference” value with β-arrestin1 and with β-arrestin2 was “stronger” each time.
